Source: paper PMC10218236, “Structural Optimization and Interaction Study of a DNA Aptamer to L1 Cell Adhesion Molecule”

Target: L1CAM protein (Sino Biological) (UniProt P32004 20-1120)
Assay: DMS footprinting; 100 nM DNA, 300 nM L1CAM; PBS, 4.5 g/L glucose, 5 mM MgCl2, 1 mg/mL BSA, 0.1 mg/mL herring sperm DNA; 30 min at 4 °C (or 25/37 °C); pH not stated
Conditions: protein: commercial; label: FAM (3' FAM in DMS footprinting); hairpin, two stems, two loops, T bulge in stem I

L1CAM protein (Sino Biological), sequence (P32004 20-1120): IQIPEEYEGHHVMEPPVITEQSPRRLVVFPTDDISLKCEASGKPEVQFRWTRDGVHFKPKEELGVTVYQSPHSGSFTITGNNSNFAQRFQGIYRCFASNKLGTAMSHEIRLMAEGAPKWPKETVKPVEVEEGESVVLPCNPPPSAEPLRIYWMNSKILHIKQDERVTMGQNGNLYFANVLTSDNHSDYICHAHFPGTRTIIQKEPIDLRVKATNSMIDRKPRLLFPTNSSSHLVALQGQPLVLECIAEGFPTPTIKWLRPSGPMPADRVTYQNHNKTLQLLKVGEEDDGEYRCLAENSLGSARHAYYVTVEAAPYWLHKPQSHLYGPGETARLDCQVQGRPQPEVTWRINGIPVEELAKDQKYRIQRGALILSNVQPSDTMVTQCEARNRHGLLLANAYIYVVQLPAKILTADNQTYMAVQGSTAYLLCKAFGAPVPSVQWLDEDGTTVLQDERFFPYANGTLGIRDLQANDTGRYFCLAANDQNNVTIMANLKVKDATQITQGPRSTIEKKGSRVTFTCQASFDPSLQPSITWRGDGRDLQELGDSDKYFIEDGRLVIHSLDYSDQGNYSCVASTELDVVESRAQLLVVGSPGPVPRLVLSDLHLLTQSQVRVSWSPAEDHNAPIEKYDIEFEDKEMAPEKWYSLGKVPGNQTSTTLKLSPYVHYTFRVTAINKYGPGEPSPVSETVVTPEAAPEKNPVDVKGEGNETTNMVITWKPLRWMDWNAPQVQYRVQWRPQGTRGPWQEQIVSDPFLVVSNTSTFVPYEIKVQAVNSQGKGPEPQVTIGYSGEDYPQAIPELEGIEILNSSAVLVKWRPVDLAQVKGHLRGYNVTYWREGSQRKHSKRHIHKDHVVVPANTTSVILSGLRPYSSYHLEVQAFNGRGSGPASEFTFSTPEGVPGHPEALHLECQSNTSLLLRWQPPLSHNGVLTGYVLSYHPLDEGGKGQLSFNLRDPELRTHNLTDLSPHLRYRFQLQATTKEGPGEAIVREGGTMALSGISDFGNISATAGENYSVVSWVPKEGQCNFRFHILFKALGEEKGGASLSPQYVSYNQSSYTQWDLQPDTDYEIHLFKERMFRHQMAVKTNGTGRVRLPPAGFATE

B1: yly20 (ssDNA)
DNA: CAGATAGGGGGTAGCTCGGTCGTGTTTTTGGGTTGTTTGGTGGGTCTTCTG
  binding result: binds
